Assay results: patent US20200087363A1 (IMMATICS BIOTECHNOLOGIES, published 2020)

Biological target: T1, HLA-B*44:05 (human)
T1 construct: also called peptide-receptive MHC class I molecule
Test: UV peptide exchange, anti-b2m ELISA
Outline: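 Peptide-receptive HLA-B*44:05 monomers after UV-induced exchange were diluted 100-fold and captured on streptavidin-coated plates for 1 h at 37 °C. Bound complexes were detected with 2 µg/ml HRP-anti-β2m (1 h, 37 °C) and TMB, read at 450 nm. β2m signal reflects peptide-stabilized complex yield.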

Row | Binder | peptide exchange yield [%]
1 | EENIVAIGI | 50 to 75
2 | ELVHMINW | 20 to 50
3 | KEFYPVKEF | 20 to 50
4 | EESLLSSW | 50 to 75
5 | EEIFKTLNY | 50 to 75
6 | AELFLTKSF | > 75
7 | AAFEDAQGHIW | > 75
8 | GEARGDQVDW | > 75
9 | EESLLSSWDF | 50 to 75

Second part, the binder after the results:

Row | peptide exchange yield [%] | Binder
10 | 10 to 20 | KEPSQSCIAQY
11 | > 75 | TELADLDAAW
12 | 50 to 75 | SVISDSPRSW
13 | 50 to 75 | QETNKVETY
14 | 50 to 75 | SEAGLTANQY
15 | 10 to 20 | MDELEEGESY
16 | 20 to 50 | SEYPTKNYV
17 | > 75 | SECVKSLSF
18 | 50 to 75 | SEESAGPLL
19 | 20 to 50 | YQENPRAAW
20 | 20 to 50 | SLAELIAKDW
21 | 50 to 75 | SEENTGKTY
